Consider 1 protein from publication PMC10504544, “1-deoxy-D-xylulose-5-phosphate synthase from Pseudomonas aeruginosa and Klebsiella pneumoniae reveals conformational changes upon cofactor binding” (The Journal of Biological Chemistry, 2023).

Substrate in data set [1]: CC(=O)C(=O)O
Description: steady-state kinetics (Km), IspC-coupled assay. In kind it is biochemical, Pseudomonas aeruginosa. To be noted: ThDP, Mg2+.

Substrate in data set [2]: O=CC(O)COP(=O)(O)O
As to the kind of experiment: steady-state kinetics (Km), IspC-coupled assay. As to conditions: ThDP, Mg2+. It counts as biochemical, Pseudomonas aeruginosa.

B1: 1-deoxy-D-xylulose-5-phosphate synthase (paDXPS) (Pseudomonas aeruginosa PAO1) (protein)
chain: MPKTLHEIPRERPATPLLDRASSPAELRRLGEADLETLADELRQYLLYTVGQTGGHFGAGLGVVELTIALHYVFDTPDDRLVWDVGHQAYPHKILTERRELMGTLRQKNGLAAFPRRAESEYDTFGVGHSSTSISAALGMAIAARLQGKERKSVAVIGDGALTAGMAFEALNHASEVDADMLVILNDNDMSISHNVGGLSNYLAKILSSRTYSSMREGSKKVLSRLPGAWEIARRTEEYAKGMLVPGTLFEELGWNYIGPIDGHDLPTLVATLRNMRDMKGPQFLHVVTKKGKGFAPAELDPIGYHAITKLEAPGSAPKKTGGPKYSSVFGQWLCDMAAQDARLLGITPAMKEGSDLVAFSERYPERYFDVAIAEQHAVTLAAGMACEGMKPVVAIYSTFLQRAYDQLIHDVAVQHLDVLFAIDRAGLVGEDGPTHAGSFDISYLRCIPGMLVMTPSDEDELRKLLTTGYLFDGPAAVRYPRGSGPNHPIDPDLQPVEIGKGVVRRRGGRVALLVFGVQLAEAMKVAESLDATVVDMRFVKPLDEALVRELAGSHELLVTIEENAVMGGAGSAVGEFLASEGLEVPLLQLGLPDYYVEHAKPSEMLAECGLDAAGIEKAVRQRLDRQ
B1: the Km (commonly the concentration of substrate that gives half-maximal velocity) in data set [1] came to 184 ± 25 µM; in data set [2], 357 ± 77 µM.
